Results from patent US20190062438A1 (CSL, published 2019).

Biological target: T1, shCD131 T106A (human, UniProt P32927 17-438)
T1 construct: C-terminal 6xHis
T1 sequence: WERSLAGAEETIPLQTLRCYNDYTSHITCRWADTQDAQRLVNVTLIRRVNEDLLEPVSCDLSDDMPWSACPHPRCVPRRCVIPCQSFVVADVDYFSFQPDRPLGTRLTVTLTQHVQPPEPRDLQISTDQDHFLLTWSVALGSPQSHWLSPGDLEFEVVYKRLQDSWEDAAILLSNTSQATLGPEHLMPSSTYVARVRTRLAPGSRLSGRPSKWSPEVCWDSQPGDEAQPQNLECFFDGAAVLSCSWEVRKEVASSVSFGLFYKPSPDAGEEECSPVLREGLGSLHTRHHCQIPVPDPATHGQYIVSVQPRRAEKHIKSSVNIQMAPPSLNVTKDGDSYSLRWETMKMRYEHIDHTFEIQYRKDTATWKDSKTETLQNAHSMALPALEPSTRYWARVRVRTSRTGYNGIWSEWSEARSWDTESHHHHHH
Experiment: SPR, Fab over captured mutant
Procedure: For some analysis purified Fab was injected over each flow cell for 3 minutes and dissociation was monitored for a further 10 minutes. Regeneration of the surface was performed after each cycle with a 40 second injection of 25 mM glycine, pH 2.0. The analysis was performed with Fabs at several concentrations between 100 and 0.31 nM, with each concentration analyzed twice and in random order. The analysis was performed at a flow rate of 30 μl/min in HBS-EP buffer (10 mM Hepes, 150 mM NaCl, 3 mM EDTA, 0.005% Tween 20, pH 7.4) at 37° C. Responses from spots 2 and 4 of each flow cell, (in which shβc was not captured, but otherwise treated identically), were subtracted from those of spots 1 and 5 respectively to produce reference subtracted data. Reference subtracted responses from a blank injection comprising buffer alone were subtracted from the resultant sensorgrams to produce double referenced data suitable for kinetic analysis. […]
Mapping of the shCD131 epitope was performed by measurement of the affinity of Fabs for various alanine point mutants of shCD131 essentially as described above, with the following exceptions. […] For kinetic analysis, purified recombinant Fabs were injected for 2 minutes, and dissociation was monitored for a further 2 minutes. […] Kinetic parameters were determined as described above.

fold increase in affinity relative to WT shCD131: ~10 fold
B1: 9A2 Fab (Fab, V domains shown)
VH: EVQLLESGGGLVQPGGSLRLSCAASGFTFSHYHMLWVRQAPGKGLEWVSSIRSSGGFTYYADSVKGRFTISRDNSKNTLYLQMNSLRAEDTAVYYCARFYDSFFDIWGQGTMVTVSS
VL: DIQMTQSPSSVSASVGDRVTITCRASQGISSWLAWYQQKPGKAPKLLIYAASSLQSGVPSRFSGSGSGTDFTLTISSLQPEDFATYYCQQANSFPITFGQGTRLEIKR
notes: also called recombinant Fab of 9A2
